The FLAb antibody collection (doi:10.7554/elife.23156)

B1: scFv; the commonest letter at each place (parent)
chain 1: EVKLDETGGGLVQPGRPMKLSCVASGFTFSDYWMNWVRQSPEKGLEWVAQIRNKPYNYETYYSDSVKGRFTISRDDSKSSVYLQMNNLRVEDMGIYYCTGSYYGMDYWGQGTSVTVS
chain 2: DVVMTQTPLSLPVSLGDQASISCRSSQSLVHSNGNTYLRWYLQKPGQSPKVLIYKVSNRFSGVPDRFSGSGSGTDFTLKISRVEAEDLGVYFCSQSTHVPWTFGGGTKLEIK

Key:
fluorescein = variants of: B1; assay: Kd (Tite-Seq); conditions: with fluorescein; format: scFv 4-4-20, heavy + light
[1] = variants of: B1; assay: yeast surface expression (ratio to wild type); higher = more expressed; conditions: format: scFv 4-4-20, heavy + light

| Variant | Kd (fluorescein) [µM] | yeast surface expression [1] |
| --- | --- | --- |
| chain 1 G104L M105L | ≥ 10 | 0.303 |
| chain 1 G104V Y107I | ≥ 10 | 0.443 |
| chain 1 Y103H M105F Y107L | ≥ 10 | 0.92 |
| chain 1 N35M | ≥ 10 | 0.715 |
| chain 1 N35D | ≥ 10 | 0.922 |
| chain 1 N35I | ≥ 10 | 0.652 |
| chain 1 W33C W36G | ≥ 10 | 1.12 |
| chain 1 S101L Y102W | ≥ 10 | 0.407 |
| chain 1 Y102Q W108Q | ≥ 10 | 0.508 |
| chain 1 W33C | ≥ 10 | 0.827 |
| chain 1 W33T | ≥ 10 | 1.02 |
| chain 1 W33F | 0.0412 | 0.902 |
| chain 1 Y102Q | 0.0335 | 1.12 |
| chain 1 Y102C | 0.00334 | 0.924 |
| chain 1 G104M W108V G109T | ≥ 10 | 0.212 |
| chain 1 T28F V37C | 0.00158 | 0.588 |
| chain 1 T28Y D31W V37T | 0.00638 | 0.808 |
| chain 1 G100R Y103D W108G | ≥ 10 | 0.483 |
| chain 1 F29Y Y32S | ≥ 10 | 0.95 |
| chain 1 G100D Y102S | ≥ 10 | 0.289 |
| chain 1 Y107L G109R | ≥ 10 | 0.343 |
| chain 1 Y107E W108E | ≥ 10 | 0.485 |

| Variant | Kd (fluorescein) [µM] | yeast surface expression [1] |
| --- | --- | --- |
| chain 1 D31E M34P | ≥ 10 | 0.406 |
| chain 1 Y32N M34V | ≥ 10 | 0.683 |
| chain 1 M34Q W36E | ≥ 10 | 2.19 |
| chain 1 T28P S30N | 0.000989 | 1.1 |
| chain 1 T28Q | 0.000763 | 1.06 |
| chain 1 T28R W33G | ≥ 10 | 0.684 |
| chain 1 Y103P Y107E | ≥ 10 | 0.763 |
| chain 1 W33R W36Y | ≥ 10 | 0.561 |
| chain 1 F29C N35I | ≥ 10 | 1.12 |
| chain 1 T28S M34R | ≥ 10 | 1.99 |
| chain 1 Y103V | 0.0158 | 0.701 |
| chain 1 S30P V37Y | 0.0729 | 1.25 |
| chain 1 S30L W33I | ≥ 10 | 0.639 |
| chain 1 S30L W33E | ≥ 10 | 0.645 |
| chain 1 F29S V37C | 0.00638 | 0.758 |
| chain 1 D31Y W36S | ≥ 10 | 0.638 |
| chain 1 G100N M105T | ≥ 10 | 0.413 |
| chain 1 M105I W108V | 0.000724 | 0.782 |
| chain 1 W108E G109K | ≥ 10 | 0.403 |
| chain 1 W108E G109P | ≥ 10 | 0.356 |
| chain 1 W33E V37T | ≥ 10 | 0.486 |
| chain 1 T28M V37K | ≥ 10 | 0.399 |

| Variant | Kd (fluorescein) [µM] | yeast surface expression [1] |
| --- | --- | --- |
| chain 1 D31Q W33T | ≥ 10 | 0.793 |
| chain 1 Y107A | 7.33 | 1 |
| chain 1 Y103D Y107R | ≥ 10 | 0.955 |
| chain 1 D31N W36I | 0.0287 | 0.679 |
| chain 1 S101I Y102W | ≥ 10 | 0.303 |
| chain 1 Y102T Y103W | 0.00785 | 0.819 |
| chain 1 S30Q Y32V | ≥ 10 | 0.923 |
| chain 1 M105C | 4.48 | 0.861 |
| chain 1 Y102V Y107D | ≥ 10 | 0.452 |
| chain 1 Y103C G104C | ≥ 10 | 0.223 |
| chain 1 Y102P M105S | ≥ 10 | 0.416 |
| chain 1 S30G W36S | 1.47 | 0.275 |
| chain 1 Y32L M34A | ≥ 10 | 0.634 |
| chain 1 T28W S30F | 0.00606 | 0.69 |
| chain 1 Y102M Y107S | ≥ 10 | 0.685 |
| chain 1 G104Y | ≥ 10 | 0.464 |
| chain 1 G104R | ≥ 10 | 0.626 |
| chain 1 G104L | ≥ 10 | 0.556 |
| chain 1 G104A | ≥ 10 | 0.693 |
| chain 1 V37I | 0.00239 | 0.916 |
| chain 1 V37F | 0.0259 | 0.9 |
| chain 1 V37R | 1.08 | 0.716 |

| Variant | Kd (fluorescein) [µM] | yeast surface expression [1] |
| --- | --- | --- |
| chain 1 D106T Y107V | 5.37 | 0.829 |
| chain 1 Y32K | 1.67 | 0.804 |
| chain 1 F29N W36L | ≥ 10 | 0.472 |
| chain 1 F29N S30P M34H | ≥ 10 | 0.781 |
| chain 1 W33G W36I | ≥ 10 | 0.622 |
| chain 1 W36Q | ≥ 10 | 0.308 |
| chain 1 F29K Y32G | ≥ 10 | 0.778 |
| chain 1 G100Q D106P | ≥ 10 | 0.222 |
| chain 1 G100A | 0.0017 | 0.964 |
| chain 1 S30W Y32G | 1.55 | 0.706 |
| chain 1 F29Q V37M | 0.00239 | 1.09 |
| chain 1 S101F Y102A | ≥ 10 | 0.623 |
| chain 1 S30E M34W N35M | ≥ 10 | 0.493 |
| chain 1 S101H Y103L | ≥ 10 | 0.78 |
| chain 1 Y107I G109K | ≥ 10 | 0.234 |
| chain 1 G100V G109Y | ≥ 10 | 0.271 |
| chain 1 S101R D106T | ≥ 10 | 0.466 |
| chain 1 Y103K G109W | ≥ 10 | 0.123 |
| chain 1 F29Q W36T | ≥ 10 | 0.359 |
| chain 1 G100Q Y107L G109E | ≥ 10 | 0.226 |
| chain 1 T28E V37C | 0.000369 | 0.863 |
